# B1: FNI9-v13.8 (protein)
# heavy chain: QVQLVQSGAEVKEPGSSVTVSCKASGGSFNNQAISWVRQAPGQGLEWMGGIFPISGTPTSAQRFQGRVTFTADESTTTVYMDLSSLRSDDTAVYYCARAGSDYFNRDLGWENYYFASWGQGTLVTVSS
# light chain: EIVMTQSPATLSVSPGERATLSCRASRSVSSNLAWYQQKPGQAPRLLIYDASTRATGFSARFAGSGSGTEFTLTISSLQSEDSAIYYCQQYNNWPPWTFGQGTKVEIK
# Experiments:
# [1] = tested on: NA-1: N1 from A/Vietnam/1203/2004
# [2] = tested on: NA-5: N2 from A/Tanzania/205/2010
# [3] = tested on: NA-16: N2 from A/Switzerland/8060/2017
# [4] = tested on: NA-17: N2 from A/South_Australia/34/2019
# [5] = tested on: NA-18: N2 from A/Hong-Kong/2671/2019
# [6] = tested on: NA-19: N2 from A/Tanzania/205/2010 (82-469) S245NS247T
# [7] = tested on: H7N3_NA_A_Ck_Ja_PAVX17170_2017
# [8] = tested on: H5N6_NA_A_Hangzhou_01_2021
molecule,measurement,setting,value
B1,MUNANA vs NA antigens | A,[1],30.6 µg/mL
same,MUNANA vs NA antigens | B,[2],158.3 µg/mL
same,MUNANA vs NA antigens | C,[3],834.9 µg/mL
same,MUNANA vs NA antigens | D,[4],80455 µg/mL
same,MUNANA vs NA antigens | E,[5],832.7 µg/mL
same,MUNANA vs NA antigens | F,[6],1073 µg/mL
same,ELLA vs pseudoviruses | H,[7],11.57 µg/mL
same,ELLA vs pseudoviruses | J,[8],2.03 µg/mL
same,ELLA vs pseudoviruses | K,H7N7_NA_A_Ck_621572_03,53.76 µg/mL
same,ELLA vs pseudoviruses | M,H7N9_NA_A_Anhui_1_2013,1.701 µg/mL
